Target: CA-FN domains of human RPTPζ (amino acid residues 34-410) fused to human IgG1 Fc, purified (human, UniProt P23471 34-410)
Assay: AlphaScreen competition with biotinylated TNC(Fg)

IC50 [nM]	Binder
43	Fg domain of human tenascin-C (amino acid residues 1975-2201) (domain or fragment) GLLYPFPKDCSQAMLNGDTTSGLYTIYLNGDKAEALEVFCDMTSDGGGWIVFLRRKNGRENFYQNWKAYAAGFGDRREEFWLGLDNLNKITAQGQYELRVDLRDHGETAFAVYDKFSVGDAKTRYKLKVEGYSGTAGDSMAYHNGRSFSTFDKDTDSAITNCALSYKGAFWYRNCHRVNLMGRYGDNNHSQGVNWFHWKGHEHSIQFAEMKLRPSNFRNLEGRRKRA
47	Fg domain of human tenascin-R (amino acid residues 1129-1358) (domain or fragment) GRVFPHPQDCAQHLMNGDTLSGVYPIFLNGELSQKLQVYCDMTTDGGGWIVFQRRQNGQTDFFRKWADYRVGFGNVEDEFWLGLDNIHRITSQGRYELRVDMRDGQEAAFASYDRFSVEDSRNLYKLRIGSYNGTAGDSLSYHQGRPFSTEDRDNDVAVTNCAMSYKGAWWYKNCHRTNLNGKYGESRHSQGINWYHWKGHEFSIPFVEMKMRPYNHRLMAGRKRQSLQF

Source: paper PMC10371798 (2023)
